Data taken from US20250188176A1 (INVETX, published 2025).

Biological target: T1, Extracellular domain (ECD) of the canine IL-4 receptor alpha-V5 epitope-AviTag-His Tag (canine)
T1 construct: monomeric form isolated by size exclusion; also called canine IL-4RA-V5-Avi-His; canine IL-4RA
T1 chain: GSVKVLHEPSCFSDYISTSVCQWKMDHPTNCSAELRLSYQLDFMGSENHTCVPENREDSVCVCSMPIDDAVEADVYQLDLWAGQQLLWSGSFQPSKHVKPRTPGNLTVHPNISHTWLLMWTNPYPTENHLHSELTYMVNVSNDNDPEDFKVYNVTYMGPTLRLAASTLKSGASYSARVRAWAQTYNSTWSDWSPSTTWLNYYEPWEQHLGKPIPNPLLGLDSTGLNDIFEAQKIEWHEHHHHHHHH
Assay: SPR, Fab-SASA captured on BSA;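 further: biacore T200 SPR, Fab-SASA variants from E. coli conditioned medium captured on BSA-coated CM5 chip, canine IL-4RA injected 120 s then 420 s dissociation, 1:1 model fit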
Protocol: Forty-four PML clones were selected from each library for expression in E. coli in 96 deep-well plates by inoculating into 2YT medium and inducing with 0.2 mM IPTG overnight at room temperature. The Fab secreted in the medium was analyzed for binding activity by completing an ELISA. […] The 39 unique clones were confirmed by an off-rate screening assay in an SPR assay performed on a Biacore T200. For the SPR analyses, bovine serum albumin (BSA) was immobilized to CM5 sensor chip. The sensor chip surface was activated with 50 mmol/L H-Hydroxysuccinimide and 200 mmol/L 1-ethyl-3-(3-dimethylaminopropyl) carbodiimide hydrochloride for 420 s. Afterwards, BSA diluted in 10 mM sodium acetate, pH 4.5 was injected. After the amine coupling reaction, the remaining active coupling sites on the chip surface were blocked with 1 mM ethanolamine hydrochloride. The selected Fab-SASA variants in conditioned medium were captured on the BSA-coated chips. The running buffer was HBS-EP (10 mM HEPES 500 mM NaCl, 3 mM EDTA, 0.05% Tween 20, pH 7.4). After equilibration, canine IL-4RA was injected for 120 seconds (association phase) followed by the injection of running buffer for 420 sec (dissociation phase). The off-rates of the Fab-SASA clones were obtained from fitting the experimental data locally to a 1:1 interaction model using the Biacore T200 evaluation software.

Binder | Kd [nM] | Ratio WT-kd/clone-kd | koff [s⁻¹] | kon [M⁻¹ s⁻¹]
TB640_005 Fab-SASA VH-V114Q (Fab, V domains shown, not shown: SASA tag then His-tag) VH: EVQLVESGGDLVKPGGSLRLSCVASGFTFRDYAMTWVRQAPGKGLQWVSLISGSGGKTYYADAVKGRFTISRDNAKNTLYLQMNSLRAEDTAVYYCAVDRLTKTIRPQYYGLWQWGQGTLVTVSS VL: DIVMTQTPLSLSVSPGETASISCRSSQSLLYSIGYNYLDWYLQKPGQSPQGLIYLGSKRASGVPDRFSGSGSGTDFTLRISRVEANDTGVYYCMQGLQSPLTFGQGTKLEIKR | 7.16 | 1.41 | 0.000674 | 94100
TB640_005 Fab-SASA VL-Q27H (Fab, V domains shown, not shown: SASA tag then His-tag) VH: EVQLVESGGDLVKPGGSLRLSCVASGFTFRDYAMTWVRQAPGKGLQWVSLISGSGGKTYYADAVKGRFTISRDNAKNTLYLQMNSLRAEDTAVYYCAVDRLTKTIRPQYYGLWVWGQGTLVTVSS VL: DIVMTQTPLSLSVSPGETASISCRSSHSLLYSIGYNYLDWYLQKPGQSPQGLIYLGSKRASGVPDRFSGSGSGTDFTLRISRVEANDTGVYYCMQGLQSPLTFGQGTKLEIKR | 14.9 | 0.97 | 0.000979 | 65700
TB640_005 Fab-SASA VL-I33A (Fab, V domains shown, not shown: SASA tag then His-tag) VH: EVQLVESGGDLVKPGGSLRLSCVASGFTFRDYAMTWVRQAPGKGLQWVSLISGSGGKTYYADAVKGRFTISRDNAKNTLYLQMNSLRAEDTAVYYCAVDRLTKTIRPQYYGLWVWGQGTLVTVSS VL: DIVMTQTPLSLSVSPGETASISCRSSQSLLYSAGYNYLDWYLQKPGQSPQGLIYLGSKRASGVPDRFSGSGSGTDFTLRISRVEANDTGVYYCMQGLQSPLTFGQGTKLEIKR | 20.1 | 0.62 | 0.00153 | 75900
TB640_005 Fab-SASA VL-G96P (Fab, V domains shown, not shown: SASA tag then His-tag) VH: EVQLVESGGDLVKPGGSLRLSCVASGFTFRDYAMTWVRQAPGKGLQWVSLISGSGGKTYYADAVKGRFTISRDNAKNTLYLQMNSLRAEDTAVYYCAVDRLTKTIRPQYYGLWVWGQGTLVTVSS VL: DIVMTQTPLSLSVSPGETASISCRSSQSLLYSIGYNYLDWYLQKPGQSPQGLIYLGSKRASGVPDRFSGSGSGTDFTLRISRVEANDTGVYYCMQPLQSPLTFGQGTKLEIKR | 3.27 | 2.66 | 0.000358 | 109000
TB640_005 Fab-SASA VL-I33P (Fab, V domains shown, not shown: SASA tag then His-tag) VH: EVQLVESGGDLVKPGGSLRLSCVASGFTFRDYAMTWVRQAPGKGLQWVSLISGSGGKTYYADAVKGRFTISRDNAKNTLYLQMNSLRAEDTAVYYCAVDRLTKTIRPQYYGLWVWGQGTLVTVSS VL: DIVMTQTPLSLSVSPGETASISCRSSQSLLYSPGYNYLDWYLQKPGQSPQGLIYLGSKRASGVPDRFSGSGSGTDFTLRISRVEANDTGVYYCMQGLQSPLTFGQGTKLEIKR | 12.5 | 0.7 | 0.00137 | 109000
TB640_005 Fab-SASA VL-L101N (Fab, V domains shown, not shown: SASA tag then His-tag) VH: EVQLVESGGDLVKPGGSLRLSCVASGFTFRDYAMTWVRQAPGKGLQWVSLISGSGGKTYYADAVKGRFTISRDNAKNTLYLQMNSLRAEDTAVYYCAVDRLTKTIRPQYYGLWVWGQGTLVTVSS VL: DIVMTQTPLSLSVSPGETASISCRSSQSLLYSIGYNYLDWYLQKPGQSPQGLIYLGSKRASGVPDRFSGSGSGTDFTLRISRVEANDTGVYYCMQGLQSPNTFGQGTKLEIKR | 9.76 | 0.3 | 0.00321 | 328000
TB640_005 Fab-SASA VL-L30A (Fab, V domains shown, not shown: SASA tag then His-tag) VH: EVQLVESGGDLVKPGGSLRLSCVASGFTFRDYAMTWVRQAPGKGLQWVSLISGSGGKTYYADAVKGRFTISRDNAKNTLYLQMNSLRAEDTAVYYCAVDRLTKTIRPQYYGLWVWGQGTLVTVSS VL: DIVMTQTPLSLSVSPGETASISCRSSQSLAYSIGYNYLDWYLQKPGQSPQGLIYLGSKRASGVPDRFSGSGSGTDFTLRISRVEANDTGVYYCMQGLQSPLTFGQGTKLEIKR | 27.3 | 0.51 | 0.00187 | 68600
TB640_005 Fab-SASA VH-Y110R (Fab, V domains shown, not shown: SASA tag then His-tag) VH: EVQLVESGGDLVKPGGSLRLSCVASGFTFRDYAMTWVRQAPGKGLQWVSLISGSGGKTYYADAVKGRFTISRDNAKNTLYLQMNSLRAEDTAVYYCAVDRLTKTIRPQYRGLWVWGQGTLVTVSS VL: DIVMTQTPLSLSVSPGETASISCRSSQSLLYSIGYNYLDWYLQKPGQSPQGLIYLGSKRASGVPDRFSGSGSGTDFTLRISRVEANDTGVYYCMQGLQSPLTFGQGTKLEIKR | 9.6 | 0.62 | 0.00153 | 159000
TB640_005 Fab-SASA VL-Q27E (Fab, V domains shown, not shown: SASA tag then His-tag) VH: EVQLVESGGDLVKPGGSLRLSCVASGFTFRDYAMTWVRQAPGKGLQWVSLISGSGGKTYYADAVKGRFTISRDNAKNTLYLQMNSLRAEDTAVYYCAVDRLTKTIRPQYYGLWVWGQGTLVTVSS VL: DIVMTQTPLSLSVSPGETASISCRSSESLLYSIGYNYLDWYLQKPGQSPQGLIYLGSKRASGVPDRFSGSGSGTDFTLRISRVEANDTGVYYCMQGLQSPLTFGQGTKLEIKR | 13.4 | 1.09 | 0.000873 | 65300
TB640_005 Fab-SASA VL-I33V (Fab, V domains shown, not shown: SASA tag then His-tag) VH: EVQLVESGGDLVKPGGSLRLSCVASGFTFRDYAMTWVRQAPGKGLQWVSLISGSGGKTYYADAVKGRFTISRDNAKNTLYLQMNSLRAEDTAVYYCAVDRLTKTIRPQYYGLWVWGQGTLVTVSS VL: DIVMTQTPLSLSVSPGETASISCRSSQSLLYSVGYNYLDWYLQKPGQSPQGLIYLGSKRASGVPDRFSGSGSGTDFTLRISRVEANDTGVYYCMQGLQSPLTFGQGTKLEIKR | 12.7 | 0.94 | 0.00101 | 79800
TB640_005 Fab-SASA VL-L55M (Fab, V domains shown, not shown: SASA tag then His-tag) VH: EVQLVESGGDLVKPGGSLRLSCVASGFTFRDYAMTWVRQAPGKGLQWVSLISGSGGKTYYADAVKGRFTISRDNAKNTLYLQMNSLRAEDTAVYYCAVDRLTKTIRPQYYGLWVWGQGTLVTVSS VL: DIVMTQTPLSLSVSPGETASISCRSSQSLLYSIGYNYLDWYLQKPGQSPQGLIYMGSKRASGVPDRFSGSGSGTDFTLRISRVEANDTGVYYCMQGLQSPLTFGQGTKLEIKR | 7.97 | 1.42 | 0.000669 | 83900
TB640_005 Fab-SASA VL-Q27T (Fab, V domains shown, not shown: SASA tag then His-tag) VH: EVQLVESGGDLVKPGGSLRLSCVASGFTFRDYAMTWVRQAPGKGLQWVSLISGSGGKTYYADAVKGRFTISRDNAKNTLYLQMNSLRAEDTAVYYCAVDRLTKTIRPQYYGLWVWGQGTLVTVSS VL: DIVMTQTPLSLSVSPGETASISCRSSTSLLYSIGYNYLDWYLQKPGQSPQGLIYLGSKRASGVPDRFSGSGSGTDFTLRISRVEANDTGVYYCMQGLQSPLTFGQGTKLEIKR | 15.9 | 0.86 | 0.00111 | 69700
TB640_005 Fab-SASA VL-Q27L (Fab, V domains shown, not shown: SASA tag then His-tag) VH: EVQLVESGGDLVKPGGSLRLSCVASGFTFRDYAMTWVRQAPGKGLQWVSLISGSGGKTYYADAVKGRFTISRDNAKNTLYLQMNSLRAEDTAVYYCAVDRLTKTIRPQYYGLWVWGQGTLVTVSS VL: DIVMTQTPLSLSVSPGETASISCRSSLSLLYSIGYNYLDWYLQKPGQSPQGLIYLGSKRASGVPDRFSGSGSGTDFTLRISRVEANDTGVYYCMQGLQSPLTFGQGTKLEIKR | 15.5 | 0.96 | 0.000996 | 64200
TB640_005 Fab-SASA VL-A60L (Fab, V domains shown, not shown: SASA tag then His-tag) VH: EVQLVESGGDLVKPGGSLRLSCVASGFTFRDYAMTWVRQAPGKGLQWVSLISGSGGKTYYADAVKGRFTISRDNAKNTLYLQMNSLRAEDTAVYYCAVDRLTKTIRPQYYGLWVWGQGTLVTVSS VL: DIVMTQTPLSLSVSPGETASISCRSSQSLLYSIGYNYLDWYLQKPGQSPQGLIYLGSKRLSGVPDRFSGSGSGTDFTLRISRVEANDTGVYYCMQGLQSPLTFGQGTKLEIKR | 5.41 | 0.98 | 0.000974 | 180000
TB640_005 Fab-SASA VL-L30T (Fab, V domains shown, not shown: SASA tag then His-tag) VH: EVQLVESGGDLVKPGGSLRLSCVASGFTFRDYAMTWVRQAPGKGLQWVSLISGSGGKTYYADAVKGRFTISRDNAKNTLYLQMNSLRAEDTAVYYCAVDRLTKTIRPQYYGLWVWGQGTLVTVSS VL: DIVMTQTPLSLSVSPGETASISCRSSQSLTYSIGYNYLDWYLQKPGQSPQGLIYLGSKRASGVPDRFSGSGSGTDFTLRISRVEANDTGVYYCMQGLQSPLTFGQGTKLEIKR | 11.8 | 1.54 | 0.000618 | 52200
TB640_005 Fab-SASA VL-A60M (Fab, V domains shown, not shown: SASA tag then His-tag) VH: EVQLVESGGDLVKPGGSLRLSCVASGFTFRDYAMTWVRQAPGKGLQWVSLISGSGGKTYYADAVKGRFTISRDNAKNTLYLQMNSLRAEDTAVYYCAVDRLTKTIRPQYYGLWVWGQGTLVTVSS VL: DIVMTQTPLSLSVSPGETASISCRSSQSLLYSIGYNYLDWYLQKPGQSPQGLIYLGSKRMSGVPDRFSGSGSGTDFTLRISRVEANDTGVYYCMQGLQSPLTFGQGTKLEIKR | 4.52 | 1.12 | 0.00085 | 188000
TB640_005 Fab-SASA VH-Y110L (Fab, V domains shown, not shown: SASA tag then His-tag) VH: EVQLVESGGDLVKPGGSLRLSCVASGFTFRDYAMTWVRQAPGKGLQWVSLISGSGGKTYYADAVKGRFTISRDNAKNTLYLQMNSLRAEDTAVYYCAVDRLTKTIRPQYLGLWVWGQGTLVTVSS VL: DIVMTQTPLSLSVSPGETASISCRSSQSLLYSIGYNYLDWYLQKPGQSPQGLIYLGSKRASGVPDRFSGSGSGTDFTLRISRVEANDTGVYYCMQGLQSPLTFGQGTKLEIKR | 6.65 | 0.71 | 0.00135 | 202000
